The series concerns the molecule itself. Kind of series: cryo-EM structure; IM459-complexed hIR-A^ecto, eluted with IM459 from an insulin-affinity column and purified by SEC in TBSA; focussed refinement to ca 5.0 Å. Background: Size exclusion chromatography separates by hydrodynamic size, large species first.

B1: hIR-A^ecto (insulin receptor isoform A ectodomain, residues 1-914) (domain or fragment, human, UniProt P06213-2 28-941, looked up)
chain: HLYPGEVCPGMDIRNNLTRLHELENCSVIEGHLQILLMFKTRPEDFRDLSFPKLIMITDYLLLFRVYGLESLKDLFPNLTVIRGSRLFFNYALVIFEMVHLKELGLYNLMNITRGSVRIEKNNELCYLATIDWSRILDSVEDNYIVLNKDDNEECGDICPGTAKGKTNCPATVINGQFVERCWTHSHCQKVCPTICKSHGCTAEGLCCHSECLGNCSQPDDPTKCVACRNFYLDGRCVETCPPPYYHFQDWRCVNFSFCQDLHHKCKNSRRQGCHQYVIHNNKCIPECPSGYTMNSSNLLCTPCLGPCPKVCHLLEGEKTIDSVTSAQELRGCTVINGSLIINIRGGNNLAAELEANLGLIEEISGYLKIRRSYALVSLSFFRKLRLIRGETLEIGNYSFYALDNQNLRQLWDWSKHNLTITQGKLFFHYNPKLCLSEIHKMEEVSGTKGRQERNDIALKTNGDQASCENELLKFSYIRTSFDKILLRWEPYWPPDFRDLLGFMLFYKEAPYQNVTEFDGQDACGSNSWTVVDIDPPLRSNDPKSQNHPGWLMRGLKPWTQYAIFVKTLVTFSDERRTYGAKSDIIYVQTDATNPSVPLDPISVSNSSSQIILKWKPPSDPNGNITHYLVFWERQAEDSELFELDYCLKGLKLPSRTWSPPFESEDSQKHNQSEYEDSAGECCSCPKTDSQILKELEESSFRKTFEDYLHNVVFVPRPSRKRRSLGDVGNVTVAVPTVAAFPNTSSTSVPTSPEEHRPFEKVVNKESLVISGLRHFTGYRIELQACNQDTPEERCSVAAYVSARTMPEAKADDIVGPVTHEIFENNVVHLMWQEPKEPNGLIVLYEVSYRRYGDEELHLCVSRKHFALERGCRLRGLSPGNYSVRIRATSLAGNGSWTEPTYFYVTDYLDVPSN
notes: written as one chain of the [αβ]2 dimer; also called hIR ectodomain
For B1, the binding result is “binds”.

These data come from article PMC9519552, “Activation of the human insulin receptor by non-insulin-related peptides” (Nature Communications, 2022).
